# Results as given in the DeepSol protein solubility set.
# Assay: soluble on expression in E. coli; label from the status in PepcDB or PDB records
row,Sequence,soluble on expression in E. coli
1,SQGENVDHAQPISTWSAEQELHLVVFTKPPIAGLTKQRLSREIGSTLATRISAALVENTLATAYDWLQGLDLQAGGTGAVHLYYTPVESEQAKAECVERWLDDSVRHRYPAFRIAPQKASKVQSTGDQKQDPLGSRLIQAFTEVTSLVDESRDAHVVVIGSDCPALDTAVLQQAFAALHAGHGAVIGPAQDGGYYLLGLAFAAAERTRWARVIYAAFGPHLVFSQNDVCARTVEALRNDGVRTICLPVTLNDVDTAQDLVHLPASMRPREWFSSANARLHKTSDLVETAPAPGSTTCDEEVDADKLDPSVQNVCSRQV,soluble
2,SQPLLDRSIPDFTAFTTVDDWLSAIKMVQYRDSFLTAGFTSLQLVTQMTSEDLLRIGITLAGHQKKILNSIHSMRVQISQSPTAMA,soluble
3,SQSLGDRQRDNEKIDKMQQILRSVNAGIEDKGKVIARYTDVIKQELLINQDGTVAKTFEGEQLAQNEAFTLNTRNAFKSAANDPSISLPLYIAEIEGQKK,not soluble
4,SQTVHFQGNPVTVANSIPQAGSKAQTFTLVAKDLSDVTLGQFAGKRKVLNIFPSIDTGVSAASVRKFNQLATEIDNTVVLCISADLPFAQSRFCGAEGLNNVITLSTFRNAEFLQAYGVAIADGPLKGLAARAVVVIDENDNVIFSQLVDEITTEPDYEAALAVLKA,soluble
5,SREAVTVQVGGFANYVGSYFWNFQDELLGLADDPDADPVFKNAALDMDVLYRSGETHQGVATYCPRLVSVDSRGSLGSLSSSGNLGQSSTAADQLNVATWSGNVTRSVSKPHGRNLFLQSLVEEGQNPSTSNGGSNSQKSVEYKDLIECLENGINFWTDYSKVHYHPQSLYELYGSWTDFDKFDNYGSAQEVVSDWSQIEEMNERLRFFVEECDHIQGIQFIVDDSGGFSSVAAQFLENIADDYTNTLVLLYCVRDPMTLGPSRRNQRESIMRALHDAVSFSKLSSFCNLMVPIGPPSLSRSCMSPYLYIQDEKPFHASAVCAAAIHSITVPFRLQRTGPSSDLAHSSGNLDIGELVHILSDQGRQNMVTALDVAMPAPSLTDRDAMGNIEMKLHSLTPEISDEDEDPYSVESLVVHGALDRGGQRTSISQVKDSVCSVYEARETKPKFSHLSASLCPLPVPLPFPSIFRGNIGRHGEILSDHTEESQPKGSLDIESIPMAARLRSSSAVLPFIERRSGSLQKHGVARGAIGSLVLHDWGFGREEVEDMAEHLAKLLGPFHPEMDLTSDSD,soluble
6,SRGRGGTGGARRLSCGARRRAARGTSPGRRLSTAWSQPQPPPEEYAGADDVSQSPVAEEPSWVPSPRPPVPHESPEPPSGRSLVQRDIQAFLNQCGASPGEARHWLTQFQTCHHSADKPFAVIEVDEEVLKCQQGVSSLAFALAFLQRMDMKPLVVLGLPAPTAPSGCLSFWEAKAQLAKSCKVLVDALRHNAAAAVPFFGGGSVLRAAEPAPHASYGGIVSVETDLLQWCLESGSIPILCPIGETAARRSVLLDSLEVTASLAKALRPTKIIFLNNTGGLRDSSHKVLSNVNLPADLDLVCNAEWVSTKERQQMRLIVDVLSRLPHHSSAVITAASTLLTELFSNKGSGTLFKNAERMLRVRSLDKLDQGRLVDLVNASFGKKLRDDYLASLRPRLHSIYVSEGYNAAAILTMEPVLGGTPYLDKFVVSSSRQGQGSGQMLWECLRRDLQTLFWRSRVTNPINPWYFKHSDGSFSNKQWIFFWFGLADIRDSYELVNHAKGLPDSFHKPASDPGS,soluble
7,SRLFSKALKGDHRCGETETPKSCSEVAGCKAAMRHQGKIPEELSLDDRARTQKKWGRGKWEPEPSSKPPREATLEERHARGEKHLGVEIEKTSGEIIRCEKCKRERELQQSLERERLSLGTSELDMGKGPMYDVEKLVRTRSCRRSPEANPASGEEGWKGDSHRSSPRNPTQELRRPSKSMDKKEDRGPEDQESHAQGAAKAKKDLVEVLPVTEEGLREVKKDTRPMSRSKHGGWLLREHQAGFEKLRRTRGEEKEAEKEKKPCMSGGRRMTLRDDQPAKLEKEPKTRPEENKPERPSGRKPRPMGIIAANVEKHYETGRVIGDGNFAVVKECRHRETRQAYAMKIIDKSRLKGKEDMVDSEILIIQSLSHPNIVKLHEVYETDMEIYLILEYVQGGDLFDAIIESVKFPEPDAALMIMDLCKALVHMHDKSIVHRDLKPENLLVQRNEDKSTTLKLADFGLAKHVVRPIFTVCGTPTYVAPEILSEKGYGLEVDMWAAGVILYILLCGFPPFRSPERDQDELFNIIQLGHFEFLPPYWDNISDAAKDLVSRLLVVDPKKRYTAHQVLQHPWIETAGKTNTVKRQKQVSPSSEGHFRSQHKRVVEQVS,soluble
8,SRLMNEIRETRGLAYSVYSTFAPYQEKGPFEIGLQTKKEQAEQALQLTQKTLRDFVEQGPTEEELQAARQNIVGGFPLRIDSNQKILGYLGVIGFYDLPLTYLEDYVKAVEKVTVAQIRDAFKRRIDPAGMVTVVVGA,not soluble
9,SRMNPTIMVPGSEATQERFNETLASLNKQGKKHSILKLTVHKDNSISYSGQIAASDNRPYIVVAFADNKDSYTTIKKQAKWLDHALDELQKKYHFKNFNAIGHSNGGLDWTVYLENYYAKENFHLNTLMTIGTPYNFEVVNSSNHTQMLQDLIAAKDALPDDLTVYNVAGTNSYDGDYIVPITSVETGKYIFQKTIKQYTQITVTGNEAEHSDLPTNKEVLDLISENILNNNRKKVDPKNQN,not soluble
10,SRRSLRAGKRRQTAGRKSKSPPKVPIVIQDDSLPAGPPPQIRILKRPTSNGVVSSPNSTSRPTLPVKSLAQREAEYAEARKRILGSASPEEEQEKPILDRPTRISQPEDSRQPNNVIRQPLGPDGSQGFKQRR,soluble
11,SRSKQKSRRRCFQCQTKLELVQQELGSCRCGYVFCMLHRLPEQHDCTFDHMGRG,soluble
12,SRTLQFTKMATDHSGAGNLMDCWNAGLELKSCTDEIVKFFLSQTGTSEPPVKGGIDKDCCGAIGLVVKDCWSVMFTSLGLTTMEGNNLREYCEFQAEKSELSPSPAPETLALSPVEITYPGLDY,soluble
13,SSAEQSFLFSREEADTLRLKVEELEGERSRLEEEKRMLEAQLERRALQGDYDQSRTKVLHMSLNPTSVARQRLREDHSQLQAECERLRGLLRAMERGGTV,soluble
14,SSATPIVQFQGESNCLKCFRYRLNDKHRHLFDLISSTWHWASPKAPHKHAIVTVTYHSEEQRQQFLNVVKIPPTIRHKLGFMSMHLL,soluble
15,SSDANLDSSKKNFLEGEVDDEESVILTLVPVKDDANMEQMEPSVSSTSDVKLEKPKKYNPGHLLQTNEQFTAPQKARCKIPALPLPTILPPINKVCRDTLRDWCQQLGLSTNGKKIEVYLRLHRHAYPEQRQDMPEMSQETRLQRCSRKRKAVTKRARLQSSYEMNERAEETNTVEVITSAPGAMLASWARIAARAVQPKALNSCSIPVSVEAFLMQASGVGWCVVHGRLLSADTKGWVRLQFHAGQAWVPTTHRRMISLFLLPACIFPSPGIEDNMLCPDCAKRNKKMMKRLMTVEK,soluble
16,SSEDLAKQLASYKAQLQQVEAALSGNGENEDLLKLKKDLQEVIELTKDLLSTQPSETLASSDSFASTQPTHSWKVGDKCMAVWSEDGQCYEAEIEEIDEENGTAAITFAGYGNAEVTPLLNLKPVEEGRKAKEDSGNKPMSKKEMIAQQREYKKKKALKKAQRIKELEQEREDQKVKWQQFNNRAYSKNKKGQVKRSIFASPESVTGKVGVGTCGIADKPMTQYQDTSKYNVRHLMPQ,soluble
17,SSEQTLEYFLNKGTIRRKDAADIEWYHAANSKSKLMEALRGSAQMIEADVLLRGADPEEPIMAHPPAKDSDITLQDWLKEVVKTDKGIKLDFKSLAAVSQSMSLLEEIRDQLKGPVWINADILPGPGGTATPVDPHVFLQEVAQRSENDVLSLGWTTGWTANVDNPGYSWEMVHQMEELCRPLKQPVTFPVRASLLPMSFPQFQWLLEQSDRSEILH,soluble
